US20250002610A1 (Genmab, published 2025)

Key:
[1] = target: T1, human DR4 (Death Receptor 4), cell surface expressed on human tumor cell lines (human, UniProt O00220 24-468); assay: flow cytometry, MDA-MB-231 cells, N = 2
T1 construct: also called TNFRSF10A; TRAIL-R1
T1 sequence: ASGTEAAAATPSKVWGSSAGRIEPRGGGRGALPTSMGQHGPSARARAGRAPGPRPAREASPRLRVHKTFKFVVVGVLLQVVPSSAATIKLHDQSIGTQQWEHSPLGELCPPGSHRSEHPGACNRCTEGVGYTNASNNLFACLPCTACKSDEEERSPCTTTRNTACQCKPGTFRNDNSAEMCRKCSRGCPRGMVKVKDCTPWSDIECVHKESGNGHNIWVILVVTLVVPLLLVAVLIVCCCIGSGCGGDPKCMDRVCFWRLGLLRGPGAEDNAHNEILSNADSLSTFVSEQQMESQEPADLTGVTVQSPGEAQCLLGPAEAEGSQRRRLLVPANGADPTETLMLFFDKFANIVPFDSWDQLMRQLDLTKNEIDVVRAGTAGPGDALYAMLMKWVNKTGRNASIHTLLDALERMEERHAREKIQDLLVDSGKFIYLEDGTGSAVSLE

[2] = target: T2, human FAPα (Fibroblast activation protein alpha), cell surface expressed (human, UniProt Q12884 1-760); assay: flow cytometry, Expi293F cells expressing human FAPα, average ± SEM
T2 construct: Endogenous on human lung fibroblasts and CAFs
T2 sequence: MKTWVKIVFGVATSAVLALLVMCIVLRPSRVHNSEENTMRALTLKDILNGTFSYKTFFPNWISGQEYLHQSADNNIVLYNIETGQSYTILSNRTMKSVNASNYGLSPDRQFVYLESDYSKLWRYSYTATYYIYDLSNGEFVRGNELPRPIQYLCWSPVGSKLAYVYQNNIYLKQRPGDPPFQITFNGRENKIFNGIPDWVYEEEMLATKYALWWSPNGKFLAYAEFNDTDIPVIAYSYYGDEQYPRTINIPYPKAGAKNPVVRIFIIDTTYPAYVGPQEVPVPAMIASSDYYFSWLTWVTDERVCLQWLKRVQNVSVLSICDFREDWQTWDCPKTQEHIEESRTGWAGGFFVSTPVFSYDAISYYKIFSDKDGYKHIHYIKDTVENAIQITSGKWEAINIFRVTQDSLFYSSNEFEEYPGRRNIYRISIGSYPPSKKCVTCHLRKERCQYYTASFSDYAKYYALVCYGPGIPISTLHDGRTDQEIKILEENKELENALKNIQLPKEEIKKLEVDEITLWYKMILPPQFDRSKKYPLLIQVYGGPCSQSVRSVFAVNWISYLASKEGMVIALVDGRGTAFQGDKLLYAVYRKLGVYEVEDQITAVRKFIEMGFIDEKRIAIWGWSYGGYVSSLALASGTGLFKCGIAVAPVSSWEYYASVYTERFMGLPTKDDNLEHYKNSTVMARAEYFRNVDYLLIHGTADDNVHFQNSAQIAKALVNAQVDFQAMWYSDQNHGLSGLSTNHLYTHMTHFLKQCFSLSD
Procedure: Binding of BisG1-FAPα-FERL/DR4-FERR, BisG1-FAPα-FEAL/b12-FEAR and IgG1-FAPα-FERL to FAPα of species commonly used for nonclinical toxicology studies was assessed by flow cytometry using Expi293F cells transiently expressing FAPα from different animal species. IgG1-b12 was included as negative control.
Expi293F cells expressing recombinant FAPα from various species (human, cynomolgus monkey, dog, pig, rat or mouse) were seeded (20,000 cells/well) in 96-Well round bottom plates (Greiner Bio-one, Cat #650101). Antibody dilutions were prepared using FACS buffer, consisting of PBS (Capricorn Scientific, Cat #PBS-10XA, diluted to 1×PBS in distilled water)+1% BSA (Roche, Cat #10735086001)+0.02% Sodium Azide (Bio-World, Cat #41920044-3). Plates were centrifuged, supernatant was removed, and cells were resuspended in 100 μL of antibody dilutions (concentration range 30-0.00017 μg/mL with three-fold serial dilutions using FACS buffer) of BisG1-FAPα-FERL/DR4-FERR, BisG1-FAPα-FEAL/b12-FEAR, IgG1-FAPα-FERL and IgG1-b12 and incubated for 30 min at 4° C. […] After 30 min incubation at 4° C., cells were washed with FACS buffer and resuspended in FACS buffer supplemented with TO-PRO-3 Iodide viability marker (Invitrogen, Cat #T3605, diluted 1:4,000). Antibody binding to viable cells (gMFI of PE on TO-PRO-3 negative cells) was analyzed by flow cytometry on a FACS Celesta and FACS_Diva software (first two experiments) or iQue® 3 and FlowJo software (last experiment). gMFI was determined and visualized using GraphPad Prism. Binding curves were analyzed using nonlinear regression analysis. The concentration (pg/mL) at which 50% of the maximal effect was observed (EC₅₀) was derived from the fitted curves.

[3] = target: human DR4 with death domain deletion on ExpiCHO-S cells (human); assay: flow cytometry, ExpiCHO-S cells expressing human DR4, n = 1
Procedure: Binding of BisG1-FAPα-FERL/DR4-FERR, BisG1-DR4-FEAL/b12-FEAR and IgG1-DR4-FERR to DR4 of various species commonly used for nonclinical toxicology studies was assessed by flow cytometry using ExpiCHO-S cells transiently expressing DR4 from different animal species. In contrast to other species, rodents only express one DR which has highest homology with human DR5. Therefore, ExpiCHO-S cells transiently expressing rat and mouse DR protein were used instead. All DR constructs lack the intracellular DD to avoid apoptosis of transfected cells upon DR(4) activation. IgG1-b12 was used as negative control.

B1: BisG1-FAPα-FERL/DR4-FERR (bispecific antibody, human IgG1, kappa, lambda)
heavy 1: EVQLLESGGGLVQPGGSPRLSCEASGFTFSSYALSWVRQAPGKGLEWVSAISGSGGGRYYADSVKGRFTISRDNSKNTLFLQMNSLRAEDTAVYYCAKEGYSSSGTYWDHWGQGTLVTVSSASTKGPSVFPLAPSSKSTSGGTAALGCLVKDYFPEPVTVSWNSGALTSGVHTFPAVLQSSGLYSLSSVVTVPSSSLGTQTYICNVNHKPSNTKVDKRVEPKSCDKTHTCPPCPAPEFERGPSVFLFPPKPKDTLMISRTPEVTCVVVDVSHEDPEVKFNWYVDGVEVHNAKTKPREEQYNSTYRVVSVLTVLHQDWLNGKEYKCKVSNKALPAPIEKTISKAKGQPREPQVYTLPPSREEMTKNQVSLTCLVKGFYPSDIAVEWESNGQPENNYKTTPPVLDSDGSFLLYSKLTVDKSRWQQGNVFSCSVMHEALHNHYTQKSLSLSPG
light 1: AIQMTQSPSSVSASVGDRVTITCRASQGVSSWLAWYQQKPGRAPKLLIYVASTLQSGVPSRFSGSGSGTDFTLTINSLQPEDFATYYCQQANSFPPTFGQGTRLEMKRTVAAPSVFIFPPSDEQLKSGTASVVCLLNNFYPREAKVQWKVDNALQSGNSQESVTEQDSKDSTYSLSSTLTLSKADYEKHKVYACEVTHQGLSSPVTKSFNRGEC
heavy 2: QVQLQESGPGLVKPSGTLSLTCAVSGGSISSYSWWSWIRQPPGKGLEWIGELYHSGSTNYNPSLKSRVTISVDKSKNQFSLKLRSVTAADTAVYYCVRGVATIDYWGQGTLVTVSSASTKGPSVFPLAPSSKSTSGGTAALGCLVKDYFPEPVTVSWNSGALTSGVHTFPAVLQSSGLYSLSSVVTVPSSSLGTQTYICNVNHKPSNTKVDKRVEPKSCDKTHTCPPCPAPEFERGPSVFLFPPKPKDTLMISRTPEVTCVVVDVSHEDPEVKFNWYVDGVEVHNAKTKPREEQYNSTYRVVSVLTVLHQDWLNGKEYKCKVSNKALPAPIEKTISKAKGQPREPQVYTLPPSREEMTKNQVSLTCLVKGFYPSDIAVEWESNGQPENNYKTTPPVLDSDGSFFLYSRLTVDKSRWQQGNVFSCSVMHEALHNHYTQKSLSLSPG
light 2: QSALTQPPSASGSPGQSVTISCTGTSSDVGGYNFVSWYQQDPGKAPKLLIYEVTKRPSGVPDRFSGSKSGNTASLTVSGLQAEDEADYYCSSYAGSNNVMFGGGTKLTVLGQPKAAPSVTLFPPSSEELQANKATLVCLISDFYPGAVTVAWKADSSPVKAGVETTTPSKQSNNKYAASSYLSLTPEQWKSHRSYSCQVTHEGSTVEKTVAPTECS
notes: Human IgG1 bispecific made by controlled Fab-arm exchange of IgG1-FAPα-FERL and IgG1-DR4-FERR; monovalent for FAPα and for DR4; also called GEN1057
[1]
  EC50: 0.72 µg/mL
[2]
  EC50: 0.24 µg/mL
[3]
  EC50: 1 µg/mL
